For one protein, Km, kcat and kcat/Km results are on record in patent US11807873B2, “Conversion of S-lignin compounds to useful intermediates” (Alliance for Sustainable Energy, LLC, priority 2020, dated 2023).

Common to all, as to experiment: purified protein, by the assay type
What all share (settings): other: 2 μM Ht-VanB, 400 μM NADH, air-saturated HEPES (I = 0.1M), pH 7.5, 25° C, VanA 0.4 μM for vanillate, 1 μM for syringate and 3MGA

Substrate in data set [1]: COc1cc(C(=O)O)cc(O)c1O
Substrate in data set [2]: COc1cc(C(=O)O)ccc1O
Substrate in data set [3]: COc1cc(C(=O)O)cc(OC)c1O

B1: VanAB (vanillate O-demethylase) (Pseudomonas putida KT2440) (protein)
chain: MYPKNTWYVACTPDEIATKPLGRQICGEKIVFYRARENQVAAVEDFCPHRGAPLSLGYVEDGNLVCGYHGLVMGCDGKTVSMPGQRVRGFPCNKTFAAVERYGFIWVWPGDQAQADPALIPHLEWAVSDEWAYGGGLFHIGCDYRLMIDNLMDLTHETYVHASSIGQKEIDEAPPVTTVTGDEVVTARHMENIMAPPFWRMALRGNGLADDVPVDRWQICRFTPPSHVLIEVGVAHAGKGGYHAEAQHKASSIVVDFITPESDTSIWYFWGMARNFAAHDQTLTDNIREGQGKIFSEDLEMLERQQQNLLAHPERNLLKLNIDAGGVQSRKVLERIIAQERAPQPQLIATSANPAGKLP
On to B1, for which the Km – broadly, the substrate concentration at which the rate is half of its maximum – came out at 150 ± 20 µM in data set [1], 4 ± 1 µM in data set [2] and 16 ± 2 µM in data set [3]. For the same protein, the values for the kcat in data set [1] and in data set [3] were 0.53 ± 0.02 s⁻¹ and 0.89 ± 0.03 s⁻¹, respectively. The kcat/Km in data set [1] is given as 0.36 ± 0.04 ×10^4 s^−1 · M^−1; in data set [3] it was 5.5 ± 0.6 ×10^4 s^−1 · M^−1.
